This is an account of results in publication PMC7299955, “GTP hydrolysis by Synechocystis IM30 does not decisively affect its membrane remodeling activity” (Scientific Reports, 2020).

Data set [1] has as its target T1, SynIM30 WT (Synechocystis sp. PCC 6803, UniProt Q55707).
T1 construct: gene vipp1; full length, N-terminal His-tag kept (pRSET IM30 WT), E. coli BL21(DE3), Ni-NTA; high molecular mass homo-oligomeric rings
T1 sequence (Q55707 1-267): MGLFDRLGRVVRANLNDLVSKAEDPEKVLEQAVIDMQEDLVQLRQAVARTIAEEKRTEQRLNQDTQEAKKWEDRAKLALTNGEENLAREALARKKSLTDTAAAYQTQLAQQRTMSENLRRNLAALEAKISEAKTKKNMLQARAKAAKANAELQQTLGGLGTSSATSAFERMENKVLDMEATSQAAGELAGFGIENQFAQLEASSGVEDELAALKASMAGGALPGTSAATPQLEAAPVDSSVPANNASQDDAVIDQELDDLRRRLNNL
In words: thermal denaturation, CD at […] nm. In kind it is binding. To be noted: 0.5 mM GTP with or without 2.5 mM Mg2+; 3.2 µM protein.

For data set [2], the target named is T1, SynIM30 WT. In words: malachite green Pi release. In kind it is biochemical. To be noted: 0.5 mM GMP-PCP, GTP varied, 2.5 mM Mg2+, 37 °C; competitive or allosteric not resolved. From the text:
malachite green Pi release on SynIM30 WT | […]

Data set [3] deals with the molecule itself. Description: SEC; Superose 12 10/300 GL column, 20 mM HEPES pH 7.6, 8 °C, elution followed at 280 nm; calibrated against standards of known size.
Substrate in data set [4]: Nc1nc2c(ncn2[C@@H]2O[C@H](COP(=O)(O)OP(=O)(O)OP(=O)(O)O)[C@@H](O)[C@H]2O)c(=O)[nH]1
In words: malachite green Pi release, Hill fit. In kind it is biochemical, Synechocystis sp. PCC 6803. The conditions noted are these: 2.5 mM Mg2+, 20 mM HEPES, 37 °C, 30 min, Hill coefficient 1.29 ± 0.09.

Consider `Nc1nc2c(ncn2[C@@H]2O[C@H](COP(=O)(O)OP(=O)(O)OP(=O)(O)O)[C@@H](O)[C@H]2O)c(=O)[nH]1` [GTP], for which the Tm result on SynIM30 WT [1] was “This suggests that GTP binding affects the structure and stability of IM30 to some extent”. `Nc1nc2c(ncn2[C@@H]2O[C@H](COP(=O)(O)OP(=O)(O)CP(=O)(O)O)[C@@H](O)[C@H]2O)c(=O)[nH]1` [GMP-PCP]: the “malachite green Pi release” value at SynIM30 WT [2] is recorded as “Addition of the non-hydrolyzable GTP analog GMP-PCP”.

B1: Synechocystis IM30 wild type (inner membrane-associated protein of 30 kDa) (natural protein, Synechocystis sp. PCC 6803, UniProt Q55707 1-267, looked up)
chain: MGLFDRLGRVVRANLNDLVSKAEDPEKVLEQAVIDMQEDLVQLRQAVARTIAEEKRTEQRLNQDTQEAKKWEDRAKLALTNGEENLAREALARKKSLTDTAAAYQTQLAQQRTMSENLRRNLAALEAKISEAKTKKNMLQARAKAAKANAELQQTLGGLGTSSATSAFERMENKVLDMEATSQAAGELAGFGIENQFAQLEASSGVEDELAALKASMAGGALPGTSAATPQLEAAPVDSSVPANNASQDDAVIDQELDDLRRRLNNL
notes: IM30 (Vipp1) of the cyanobacterium Synechocystis sp; PCC 6803; Forms high molecular mass homo-oligomers (>300 kDa by SEC); the number of chains in them is not determined here; also called SynIM30; SynIM30 WT; source: E. coli BL21 (DE3), purified (Ni-NTA, Sephadex G25 buffer exchange)
Take B1: in data set [3], the binding result is reported as “binds”. For the same molecule, in data set [4], the Michaelis-Menten constant (Km) came to 650 ± 140 µM and the turnover number (kcat) is 0.036 ± 0.0055 s⁻¹.

B2: SynIM30 FERM_EE (E83A, E84A, F168A, E169A, R170A, M171A) (natural protein, Synechocystis sp. PCC 6803, UniProt Q55707 1-267, looked up)
chain: MGLFDRLGRVVRANLNDLVSKAEDPEKVLEQAVIDMQEDLVQLRQAVARTIAEEKRTEQRLNQDTQEAKKWEDRAKLALTNGAANLAREALARKKSLTDTAAAYQTQLAQQRTMSENLRRNLAALEAKISEAKTKKNMLQARAKAAKANAELQQTLGGLGTSSATSAAAAAENKVLDMEATSQAAGELAGFGIENQFAQLEASSGVEDELAALKASMAGGALPGTSAATPQLEAAPVDSSVPANNASQDDAVIDQELDDLRRRLNNL
notes: IM30 (Vipp1) of Synechocystis sp; PCC 6803 with six mutations brought into the plasmid of IM30 WT; mainly tetramers in buffers of low ionic strength; also called tetrameric SynIM30 variant; source: E. coli BL21 (DE3), purified (Ni-NTA, Sephadex G25 buffer exchange)
As to B2, the “stoichiometry N” value in data set [3] was 4.
